The data set concerns the molecule itself. The data set is described as follows: SEC; elution profiles of proSP-C BRICHOS WT and T187R. (In gel filtration, larger molecules generally elute earlier.)

B1: proSP-C BRICHOS WT (domain or fragment, human, UniProt P11686 59-197, looked up)
chain: HMSQKHTEMVLEMSIGAPEAQQRLALSEHLVTTATFSIGSTGLVVYDYQQLLIAYKPAPGTCCYIMKIAPESIPSLEALTRKVHNFQMECSLQAKPAVPTSKLGQAEGRDAGSAPSGGDPAFLGMAVSTLCGEVPLYYI
notes: human proSP-C (surfactant protein C precursor), BRICHOS domain, residues 59-197 of UniProt P11686; Mainly trimeric; The mutant's mass of 18328 Da is larger than residues 59-197 alone would give, so the construct probably carries extra residues (surmise); also called proSP-C BRICHOS domain; WT proSP-C BRICHOS domain
For B1, the binding result was “binds”.

(Values after article PMC8028046 (Biochemistry, 2021).)
